According to PMC5643146:

Molecular target: xTCF1
Test: co-IP; binding competition: HEK293T cells transfected with flag-TCF and β-cat1 or β-cat4 alone, together, or with β-cat2 as control; IP with FLAG-M2 beads; precipitated β-catenins quantified and normalised against total β-catenins in whole cell lysates

relative binding to TCF, β-cat4 alone and β-cat1+β-cat4 co-transfected compared	relative binding to TCF, β-cat4 alone and β-cat4+β-cat2 co-transfected compared (negative control)	relative binding to TCF, β-cat1 alone and β-cat1+β-cat2 co-transfected compared (negative control)	relative binding to TCF, β-cat1 alone and β-cat1+β-cat4 co-transfected compared	Substance
0.51	0.91			Smed-β-catenin4 (natural protein)
		1.11	0.63	Smed-β-catenin1 (natural protein)
